Experimental data published in paper PMC3971453, “Crystallographic structure of the turbine C-ring from spinach chloroplast F-ATP synthase” (Bioscience Reports, 2014).

Target: the molecule itself
Assay: crystal structure; crystals grown from the entire CF1FO-ATP synthase (18 mg/ml), vapour diffusion, 33% (v/v) PEG 550 MME, 0.05 M sodium acetate pH 4.3; only the c-ring in the crystal; molecular replacement with PDB 2W5J; refined to 6.0 Å

B1: subunit c of the CF1FO-ATP synthase from spinach chloroplasts (natural protein, spinach (Spinacea oleracea L.), UniProt P69447 1-81, looked up)
chain: MNPLIAAASVIAAGLAVGLASIGPGVGQGTAAGQAVEGIARQPEAEGKIRGTLLLSLAFMEALTIYGLVVALALLFANPFV
notes: ATP synthase subunit c (subunit III), chloroplastic, Spinacia oleracea; native protein from the tissue; the last four C-terminal amino acids are not visible in the electron density map; Native, untagged protein; Homo-oligomeric ring of 14 copies; also called subunit III; c-ring; source: the c-ring alone was left in the crystal; copies: 14
  stoichiometry N: 14
